Reference: PMC2602770

T1: GST-AtGRP8-RQ (Arabidopsis thaliana, UniProt Q03251 1-169, R47Q)
T1 sequence: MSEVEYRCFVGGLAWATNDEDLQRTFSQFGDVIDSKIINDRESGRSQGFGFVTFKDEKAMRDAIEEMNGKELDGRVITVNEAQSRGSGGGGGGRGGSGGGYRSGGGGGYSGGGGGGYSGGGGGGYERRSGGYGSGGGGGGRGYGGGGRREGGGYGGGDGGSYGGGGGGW

T2: GST-AtGRP8 (WT) (Arabidopsis thaliana, UniProt Q03251 1-169)
T2 sequence: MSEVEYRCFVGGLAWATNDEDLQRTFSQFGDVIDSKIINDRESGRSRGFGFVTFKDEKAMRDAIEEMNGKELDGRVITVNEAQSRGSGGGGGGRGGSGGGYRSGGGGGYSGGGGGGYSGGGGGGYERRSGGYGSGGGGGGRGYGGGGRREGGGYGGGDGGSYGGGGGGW


Key:
[1] = molecular target: T1, GST-AtGRP8-RQ; experiment: EMSA
[2] = molecular target: T2, GST-AtGRP8 (WT); experiment: EMSA
[3] = molecular target: T2, GST-AtGRP8 (WT); experiment: competition
[4] = molecular target: T2, GST-AtGRP8 (WT); experiment: EMSA; remark: listed apart in the source

Binder | Kd [1] | Kd [2] | binding result [3] | binding signal [4]
AUUUUGUUCUGGUUCUGCUUUAGAUUUGAUCU (ssRNA) [7-UTR_WT] | 3220 nM | 318 nM | – | –
CUUCCACGAUUGUUUUUGCUGAUGUGU (ssRNA) [8-intron_WT] | 22900 nM | 1640 nM | – | –
GUUCAAUUUUAUUAAAUUAUUUUACUGAUCUG (ssRNA) [7-intron_G6mut] | – | – | no binding | –
GUUUUUGGUUUAGAUUUGGUUUUGUGU (ssRNA) [8-UTR_WT] | 1310 nM | 205 nM | – | –
CGUUUGGUUUACUUUUUUGAUGAAACA (ssRNA) [8-UTR_938] | – | – | – | ~10 fold lower affinity than 8-UTR_WT
GUUCAGUUUUGUUGGAUUGUUUUGCUGAUCUG (ssRNA) [7-intron_WT] | 3590 nM | 426 nM | – | –
